From the nanobody polyreactivity screen of Harvey et al. (2022)

Test: yeast display, Sf9 membrane polyspecificity reagent, FACS + sequencing; frameworks hold sequencing errors
Method in brief: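 Nanobodies came from a synthetic yeast display library in Saccharomyces cerevisiae BJ5465, induced with galactose for 36–48 hours and stained for 1 hour at 4 °C with 10% biotinylated, detergent-solubilized Sf9 membrane reagent. Cells were enriched on streptavidin microbeads and then FACS-sorted, with low and high (top ~1%) gates set on anti-HA fluorescence for expression and streptavidin fluorescence for reagent binding. Each polyreactivity label reflects the gate a clone came from. Genes were amplified by colony PCR, sequenced by MiSeq 2 × 250 and filtered by CDR length.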

Row | Sequence | polyreactivity (PSR sort gate)
1 | QDQLVESGGGLVQAGGSHRLSSAASGSILGAYAMGWYRQPPVKERELVAAISRNGGSTYYADSVKGRFTISRDNAKNTVYLQMNRLKPEDTAVYYCAAYYYDNEYDYWGQGTQVTVSS | high polyreactivity
2 | QVQLVDSGGGLVQAGGSHRLSCAASGSTFRRNAMGWYRQAPGKERELVAAITRGGSTNYADSVKGRFTISRDNAKNTVYLQMNSLNPEDTAVYYCARVYLGAYRERYVYPYDYWGQGTQVTVSS | high polyreactivity
3 | QVQLVESGGGLVQAGGSLRLSCAASGLIFVNNPMGWYRQAPGKERELVAAISWSTGGSTYYADSVKGRFTISRDNAKNSVYLQMNSLKPEDTAVYYCAAQYSYGEYWGYDYWGQGTQVTVSS | low polyreactivity
4 | QVQHVQSGGGLVQAGGSLRLSCAAAGFIYNNAMGWYRQAPGKETELVATISTSGTDTYYADSVKGRFTISRDNAKNTVYLQMNSLKPEDTAVYYCNADTEIYDSYSSYWTRYEYWGQGTQVTVSS | low polyreactivity
5 | QVQLVESGGRLVQAGGSLRLSCAASGITFYDYAMGWYRQAPGKERELVAAITWNGGDTYYADSVKGRFTISRDNAKNTVYLQMHSLKPEDTAVYYCNATRHYFGGFHYEYYYWGQGTQVTVSS | low polyreactivity
6 | QVQLEESGGGLVQAGGSLRLICAATGSIFSFYAMGWYRQAPGKEREWVAAIDVSGGSTYYADSVKGRFTISRDNAKNTVYLQMNSLKPEDTAVYYCAKDVRDQYDYWGQGTQVTVSS | low polyreactivity
7 | QVQLVESGGGLVQAGGSLRLSCAASGRILLYNAMGWYRQAPGKERELVAAISRSGGYTYYADSVNWRFTISRDNAKNTVYLQMNSLKPEDTAVYYCAAQHGYPRYYYWGQGTQVTVSS | high polyreactivity
8 | QVQLVESGGGLVQAGGSLRLSCAASGRSFYNYAMGWYRQAPGKERELVAAISGSGGSTYYADSVKGRFTISRDNAKNSVYLQMNSLKPEDTAVYYCSTSGPQYYSRNFDSWGQGTQVTVSS | low polyreactivity
9 | QVQLVESGGGLVQAGGSLRLSCAASGRISPNNVMGWYRQAPGKERELVAVISRSGDRTNYADSVKGRFTISRDNAKNTVYLQMNSLKPEDTAVYYCAARVVADKYRYDYWGQGTQVTVSS | high polyreactivity
10 | QVQLVESGGGLVQAGGSLRLSCAASGRTFPSYAMGWYRQAPGKERELVAAITRGGSTNYADSVKGRFTISRDNAKNTVYLQMNSLKPEDTAVYYCAAARWRWQLARDDYWGEGTQVTVSS | high polyreactivity
11 | QVQLVESGGRLVQAGGSLRLSCAASGRIFRVYAMGWYRQAPGKERELVAAISSRGGRTYYADSVKGRFTISRDNAKNTVYLQMNSLKPEDTAVYFCAADGRSSSRTTSRYDYWGQGTQVTVSS | high polyreactivity
12 | QVQLVDSGGGLLQAGGSLRLSCAASGSTFVAYAMGWYRQAPGKEREFVAGISSSTGGTRYADSVKGRFTISRDNAKNTVYLQMNSLKPEDSAVYYCAADLYFYYVWIRVYWGQGTQVTVSS | low polyreactivity
13 | QGQLVESGGGLVQAGGSLRLSCAASGRTFYANAMGWYRQAPGKERELVAAISTGGDGTYYADSVKGRFTISRDNAKNTVYLQMNSLKPEDAAVYYCAVRHRASGILYDYWGQGTQVTVSS | low polyreactivity
14 | QVQLVESGGGLVQAGGSLRLSCAASGSIFFVYGMGWYRQAPGKERELVAAISGGITNYADSVKGRFTISRDNAKNTVNLQMNSLKPEDTAVYYCAAYTPSYGGRDYWGQATQVTVSS | low polyreactivity
15 | QVQLQESGGGLVEAGGTLRLSCAASGSYSADEDMGWYRQAQGKEREFVAGISVGGNTNYADSVKGRFTSSRENAKNSLFLQINSLKPEDTAVYYCAVLPDVYDALDYWAQGTQVTVSS | high polyreactivity
16 | QVQLVESGGGLVQAGGSLRLSCAASGSIFGSYAMGWYRQAPGKERELVAAISRSGGRTYYADSVKGRFTISRDNAKYTVYLQMNSLKPEDTAVYYCAADTYIGYDYWGQGTQVTVSS | high polyreactivity

Row | Sequence | polyreactivity (PSR sort gate)
17 | QVQLVESGGGLVQAGGSLRLSCAASGTTFSPNAMGWYRQAPGKERELVAAIRGSGSRTYADSVKGRFTISRDNAKNSVYLQMNSLKPEDTAVYYCAAEWIYDTDYWYYSYYYWGQGTQVTVSS | low polyreactivity
18 | QVQLVESVGGLVQAGGSLRLSCAGSGFTFLYYAMGWYRQAPGKERELVDTISKSGGSTYYADSVKGRFTISRDNAKNTDYLQMNSLKPEDTAVDYFAAVGPYRWYDYWGQGTQVTVSS | high polyreactivity
19 | QVQLVESGGGLVQAGGSLRLSCAASGRTFGYNAMGWYRQAPGKERQFVAAISWSGGRTYYADSVKGRFTISRDNAKNTVYLQMNSLKPEDTAVYYCAAAAPHLSAKMDYWGQGTQVTVSS | low polyreactivity
20 | QVQLVESGGGLVQAGGSLRLSCAASGRTFGYNAMGWYREAPGKERELVAAITLGGITHYADSVKGRFTISRDNAKNTVYLQMNSLKPEDTAVYYCAKRGPYYNDDEYYWGQGTQVTVSS | low polyreactivity
21 | QVQLVESGGGLVQAGGSLSLSCAASGSIFYGYAMGWYRQAPGKERELVAAITSGGRTYYADSVKGRFTISRDNAKNTVYLQMNSLKPEDTAVYYCNAVYRKTSYGYWGQGTQVTVSS | high polyreactivity
22 | QLQLVDSGGGLVQAGGSLRLSCAASGRTFRIYAMGWYRKAPGKERELVASITGGGTTNYADSVKGRFTISRDNAKYTVYLQMNSLKPEDTAVYYCAARSRTRPNVPGYGYWGQGTQVTVSS | high polyreactivity
23 | QVQLVESGGGLVQAGGSLRLSCAASGSTLAIYAMGWYRQAPGKEREWVAAISRSGGTTYYADSVKGRFTISRDNAKNTVYLQMNSLKPEDTAVYYCYPYFWYPDGYTYDYWGQGTQVTVSS | high polyreactivity
24 | QVQLVESGGGLVQAGGSLRLSCAASGLTFSYYAMGWYRQAPGKERELVAAISWSGGITYYADSVKGRFTISRDNAKNTVYLQMNSLKPEDTAVYYCAADGYPTLYDYWGQGTQVTVSS | high polyreactivity
25 | QVQLEESGGGIVQAGGSLRLSCAASGRIFGYYAMGWYRQAPGKERELVASIRRGTRTNYADSVKGRFTISRDNAKNTVYLQMNSLKPEDTAVYYCAATRFQFTTTPWYDYWGQGTQVTVSS | high polyreactivity
26 | QVQLVESGGGLVQAGGSLRLICAASGITFAVYAMGWYSQAPGKERELVAASSVSGGSTYYADSVKGRFTISRDNAKNTVYLQMNSLKPEATAVYYGAADRYGHFGDWGQGTQVTVSS | high polyreactivity
27 | QVQLVESGGGLVQAGGSLRLSCAASGITFWANAMGWYRQAPGKERELVASIRSSGGSTYYADSVKGRFTISRDNAKNTVYLQMNSLKPEDTAVYYCNARLGPLYVYRQYDSWGQGTQVTVSS | low polyreactivity
28 | QVQLVESGGGLVQAGGSLRLSCAPSGSTFNYNAMVWYRQAPGKERELVARISWRGGSTYYADSVKGRFTISRDNAKNTVYLQMNSLKPEATAVYYCAATRYWYGSTYDYWGQGTQVTVSS | high polyreactivity
29 | QVQLVESGGGLVQAGGSLRLSCAASGRTFYKYAMGWYRQAPGKERELVAAITSGGGRTYYADSVKGRFTISRDNAKNTVYLQMNSLIPEDTAVYYCNAVLPLAKYEYDSWGQGTQVTVSS | high polyreactivity
30 | QVQLVESGGGLVQAGGSLRLSCAASGFTFTVYAMGWYRQAPGKERELVAVITAGDGTYYADSVKGRFTISRDNAKNTVYLQMNSLKPEDTAVYYCIALRYSSFRYLFAYDYWGQGTQVTVSS | low polyreactivity
31 | QVQLVESGGGLVQAGGSLRLSCAASGFTFYRNAMGWYRQPPGKERELVAAIDFSGSSTYYADSVKGRFTISRDNAKNTVYLQMNSLKPEDTAVYDCAAELGYAGYWYDYWGQGTQVTVSS | high polyreactivity
32 | QVQLVESGGGLVQAGGSLRLSCAASGSIFRLYAMGWYRQAPGKERELVAAITWRSGSTYYADSVKGRFTISRDNAKNTVYLQMNSLKPEDTAVYYCAADSLYRLYNYWGQGTQVTVSS | high polyreactivity
